# US7101851 (dated 2006)
# Bridges are numbered along the chain shown (N, C = ends). Where no end group is shown, it is not given here.
# T1: extracellular domain of the alpha subunit of the human FcεRI (aa 1-176), produced in baculovirus infected … (human, UniProt P12319 26-201, N-linked carbohydrate (NAG on Asn21 seen in the crystal); derivatised with PDEA for thiol coupling to the chip in the biosensor assay)
# T1 construct: range 1-176; Residues 1-176 are probably counted without the signal peptide; also called FcεRIα; soluble FcεRI
# T1 sequence (looked up): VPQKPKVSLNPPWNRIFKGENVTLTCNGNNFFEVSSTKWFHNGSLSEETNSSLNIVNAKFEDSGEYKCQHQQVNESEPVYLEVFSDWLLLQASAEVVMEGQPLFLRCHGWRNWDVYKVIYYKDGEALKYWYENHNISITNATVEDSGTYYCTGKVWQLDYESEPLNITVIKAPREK
# T2: FcεRI-IgG (UniProt P12319 26-205)
# T2 construct: extracellular domain; Produced from CHO cells (Genentech); also called FcεRI-Fc; bivalent fusion protein of the extracellular domain of FcεRI and the Fc domain of IgG; not shown: Fc domain of IgG
# T2 sequence (looked up): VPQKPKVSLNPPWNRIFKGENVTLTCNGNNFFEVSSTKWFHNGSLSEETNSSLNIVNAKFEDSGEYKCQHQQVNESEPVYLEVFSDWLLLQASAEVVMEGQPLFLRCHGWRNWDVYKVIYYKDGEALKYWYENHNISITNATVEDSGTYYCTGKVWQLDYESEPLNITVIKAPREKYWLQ
# T3: alpha subunit of the human FcεRI receptor expressed on cells (human, UniProt P12319 26-257)
# T3 construct: whole, on cells; on rat basophil RBL-48 cells in the histamine release assay; also called CHO FcεRI+ cells; cell surface expressed FcεRI
# T3 sequence (looked up): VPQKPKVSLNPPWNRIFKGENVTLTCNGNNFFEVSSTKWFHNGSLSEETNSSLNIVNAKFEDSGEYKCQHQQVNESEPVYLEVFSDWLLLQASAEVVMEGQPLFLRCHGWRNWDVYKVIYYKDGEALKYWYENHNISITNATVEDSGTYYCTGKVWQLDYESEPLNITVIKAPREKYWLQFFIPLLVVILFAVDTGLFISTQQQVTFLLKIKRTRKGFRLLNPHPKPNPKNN
# B1: IGE130 (peptide)
# peptide: ALCPDVCYVGGKVQCPHFCYV-NH2
# modifications: disulfide 7-15, 3-19; N-terminus assumed
# SMILES: CC(C)C[C@H](NC(=O)[C@H](C)N)C(=O)N[C@H]1CSSC[C@@H](C(=O)N[C@@H](Cc2ccc(O)cc2)C(=O)N[C@H](C(N)=O)C(C)C)NC(=O)[C@H](Cc2ccccc2)NC(=O)[C@H](Cc2c[nH]cn2)NC(=O)[C@@H]2CCCN2C(=O)[C@@H]2CSSC[C@H](NC(=O)[C@H](C(C)C)NC(=O)[C@H](CC(=O)O)NC(=O)[C@@H]3CCCN3C1=O)C(=O)N[C@@H](Cc1ccc(O)cc1)C(=O)N[C@@H](C(C)C)C(=O)NCC(=O)NCC(=O)N[C@@H](CCCCN)C(=O)N[C@@H](C(C)C)C(=O)N[C@@H](CCC(N)=O)C(=O)N2
# B2: IGE132 (peptide)
# peptide: VQCPHFCYVGGHALCPDVCYVGR-OH
# modifications: cysteine pairing not given here
# notes: produced biosynthetically as a fusion to the Z-domain of protein A and cleaved off with trypsin; free C-terminus
# B3: g3b.5 peptide-phage (peptide)
# peptide: AMAQCTEGPWGWVCMAAD
# modifications: not fully specified; cysteine pairing not given here
# notes: not shown: fused to M13 gene-3 protein (g3p) on phage
# B4: IGE150 (peptide)
# peptide: VQCPHFCYVGGKALCPDVCDV-NH2
# modifications: disulfide (positions not given here); also: two intramolecular disulfide bonds, pairing not given here
# notes: Y20D of IGE122
# B5: IGE124 (peptide)
# peptide: VPCPELCYVGGKALCPDVCYV-NH2
# modifications: disulfide (positions not given here); also: oxidized, disulfide-bonded Cys, pairing not given here
# B6: IGE131 (peptide)
# peptide: VQCPHFCYVGGKVQCPHFCYV-NH2
# modifications: disulfide (positions not given here); not fully specified (bridges); also: oxidized, disulfide-bonded Cys, pairing not given here
# B7: IGE131 (peptide)
# peptide: VQCPHFCYVGGKVQCPHFCYV-NH2
# modifications: disulfide 3-15, 7-19
# notes: The text speaks of it as D17H against IGE122
# B8: IGE128 (peptide)
# peptide: KSCPLWCYVGGKALCPDVCYV-NH2
# modifications: disulfide (positions not given here); not fully specified (bridges); also: oxidized, disulfide-bonded Cys, pairing not given here
# B9: g3b.4 peptide-phage (peptide)
# peptide: VMPTCTEGPWGWVCMAAD
# modifications: not fully specified (bridges); cysteine pairing not given here
# notes: as for B3
# B10: g3b.7 peptide-phage (peptide)
# peptide: DLPACTEGPWGWVCMAAD
# modifications: not fully specified; cysteine pairing not given here
# notes: as for B3
# B11: g3b.8 peptide-phage (peptide)
# peptide: GRTECTEGPWGWVCMAAD
# modifications: not fully specified (bridges); cysteine pairing not given here
# notes: as for B3
# B12: IGE126 (peptide)
# peptide: VTCPRWCYVGGKALCPDVCYV-NH2
# modifications: disulfide (positions not given here); also: oxidized, disulfide-bonded Cys, pairing not given here
# B13: IGE155 (peptide)
# peptide: CPHFCYELDYELCPDVCY-NH2
# modifications: disulfide (positions not given here); also: two intramolecular disulfide bonds, pairing not given here
# B14: g3b.6 peptide-phage (peptide)
# peptide: GRAQCTEGPWGWVCMAAD
# modifications: not fully specified (bridges); cysteine pairing not given here
# notes: as for B3
# B15: IGE142 (peptide)
# peptide: VQCAHFCYVGGHALCPDVCYVGR
# modifications: disulfide (positions not given here); also: two intramolecular disulfide bonds, pairing not given here
# notes: P4A of IGE132; made in E. coli as a Z-domain fusion and cleaved with trypsin
# B16: g3b.1 peptide-phage (peptide)
# peptide: NLPRCTEGPWGWVCMAAD
# modifications: disulfide 5-14 (inferred); not fully specified
# notes: as for B3
# B17: g3b.3 peptide-phage (peptide)
# peptide: NLPTCTEGPWGWVCMAAD
# modifications: not fully specified (bridges); cysteine pairing not given here
# notes: as for B3
# Tests used:
# [1] = molecular target: T1, extracellular domain of the alpha …; experiment: SPR biosensor (BIAcore), peptide over immobilized FcεRIα, steady-state saturation curve, 4-parameter fit
# Experimental: *peptide is a dimer. SEQ ID NO: describes each monomer of the dimer. "ava" = amino-valeric acid Several peptides were also tested in a direct-binding assay using a surface plasmon resonance biosensor (Lofas & Johnsson, *J. Chem. Soc. Commun.* 21, 1526–1528 (1990)). FcεRIα, produced in baculovirus infected insect cells, was immobilized by the surface thiol method (BIAcore Methods Manual Supplement 5a, BIAcore, Inc., Piscataway, N.J.). Briefly, receptor was reacted with 2-(2-pyridinyldithio)ethaneamine hydrochloride (PDEA; Natake & Swaisgood, *J. Biochem.* 74, 77–86 (1973)), desalted into 10 mM sodium acetate (pH 4.8) and stored in aliquots at −80° C. Thawed PDEA-receptor was injected over carboxymethyl-dextran (B1 or CM5, BIAcore, Inc.) biosensor chips preactivated with N-ethyl-N'-(3-dimethylaminopropyl)-carbodiimide hydrochloride (EDC) and N-hydroxysuccinimide (NHS), cystamine, and DTT. Following coupling, reactive groups on the chip were quenched with PDEA and ethanolamine. Serial dilutions of peptide in running buffer (phosphate-buffered saline containing 0.05% Tween-20, 0.01% sodium azide) were injected over the immobilized receptor, and the net amount of peptide bound at steady-state was measured as the net change in response (RU) at a point just prior to termination of peptide injection, compared to a running-buffer baseline. Binding affinities (Table 10) are reported as the midpoint ($EC50$) of a 4-parameter fit to the peptide saturation curve. In the case of IGE134 (SEQ ID NOS:), the value shown indicates the Kd calculated from the rate constants, $kon$ and $koff$. The results of binding assays (Table 8) correlate well with those of inhibition assays (Table 7).
# [2] = molecular target: T2, FcεRI-IgG; experiment: competitive phage ELISA: g3 peptide-phage on immobilized FcεRI-IgG, soluble FcεRI-IgG titrated
# Text: Peptide sequences from g8p-fused phage clones that specifically bound FcεRI-IgG were transferred onto a g3p-display format for monovalent phage display (Bass et al., *Proteins* 8, 309–314 (1990); Lowman et al., *Biochemistry* 30, 10832–10838 (1991)). An oligonucleotide encoding for each desired peptide with additional 5' and 3' base pair that overlapped with g3 was synthesized. This oligonucleotide was annealed with a g3 single stranded DNA phagemid template. The mutagenesis reaction was transformed into XL-1 Blue *E. coli* and plated on LB-carb+ agar plates. Individual colonies were propagated in 5 mL of 2YT broth, tetracycline, carbenicillin and VCSM13 helper phage (Stratagene). Single stranded DNA was isolated from the purified phage particles and sequenced to confirm the insertion of the phage peptide sequence. 25 mL preparations of g3 phage clones were propagated overnight and purified by PEG precipitation. After resuspension of the phage pellet in 1.0 mL of PBS, it was serially diluted 1/3 and incubated with immobilized FcεRI-IgG 2 ug/mL in a 96 well Maxisorp microtiter plate for 1 hour at room temperature. The wells were washed 10× with PBST then incubated with 100 uL of anti M13 phage HRP as described above. An OD(492) value corresponding to less than 50% binding was selected and the purified phage clones were diluted to yield this normalized level of signal. […] The mixture was then transferred to 96 well microtiter dishes containing immobilized FcεRI-IgG. After a 1-hour incubation period, the plates were washed 10 times, incubated with anti M13-HRP conjugated antibody and developed with OPD as described above.
# [3] = molecular target: T3, alpha subunit of the human FcεRI …; experiment: IgE inhibition assay (Table 9)
binder,measurement,setting,value
B1,EC50,[1],250 nM
B2,EC50,[1],680 nM
B3,IC50,[2],10 nM
B4,fold loss in activity,[3],~5 fold
B5,EC50,[1],890 nM
CPHFCYFGAELCPDVCY-NH2 (disulfide (positions not given here)) [IGE170],fold difference in activity against IGE167,[3],≤ 2 fold
B6,EC50,[1],2300 nM
"VQCPHFCYFGGAELCPGVCYV-NH2 (disulfide 3-15, 7-19) [IGE136]",fold difference in activity against IGE135,[3],~2 fold
B7,fold reduced activity against IGE122,[3],> 10 fold
B8,EC50,[1],240 nM
"IVCPRLCYELDYELCPDVCYV-NH2 (disulfide 3-15, 7-19) [IGE141]",fold difference in activity against IGE120,[3],2 fold
"IVCARLCYVGGKALCPDVCYV-NH2 (disulfide 3-15, 7-19, P4A of IGE120) [IGE127]",fold reduced activity against its control peptide,[3],50 fold
B9,IC50,[2],7 nM
B10,IC50,[2],9 nM
B11,IC50,[2],14 nM
B12,EC50,[1],380 nM
Ac-CPHFCYFGAELCPDVCY-NH2 (disulfide (positions not given here)) [IGE171],fold difference in activity against IGE167,[3],≤ 2 fold
B13,fold difference in activity against IGE134,[3],≤ 2 fold
B14,IC50,[2],16 nM
B15,fold reduced activity against its control peptide,[3],> 100 fold
B16,IC50,[2],13 nM
B17,IC50,[2],7 nM
